B1: glyceraldehyde-3-phosphate dehydrogenase (GAPDH), human, endogenous in human retinal pericytes (hRP) (enzyme)
chain: not shown
notes: Endogenous protein in lysates of human retinal pericytes; The proposed model says GAPDH is S-nitrosylated when it associates with Siah1
B2: E3 ubiquitin ligase seven in absentia homolog 1 (Siah1), human, endogenous in human retinal pericytes (hRP) (enzyme)
chain: MSRQTATALPTGTSKCPPSQRVPALTGTTASNNDLASLFECPVCFDYVLPPILQCQSGHLVCSNCRPKLTCCPTCRGPLGSIRNLAMEKVANSVLFPCKYASSGCEITLPHTEKADHEELCEFRPYSCPCPGASCKWQGSLDAVMPHLMHQHKSITTLQGEDIVFLATDINLPGAVDWVMMQSCFGFHFMLVLEKQEKYDGHQQFFAIVQLIGTRKQAENFAYRLELNGHRRRLTWEATPRSIHEGIATAIMNSDCLVFDTSIAQLFAENGNLGINVTISMC
notes: Endogenous protein in lysates of human retinal pericytes, immunoprecipitated with an anti-Siah1 antibody

How the values were obtained:
[1] = biological target: B2; experiment: co-immunoprecipitation from hRP lysates: IP anti-Siah1, western blot anti-GAPDH
[2] = biological target: B1; experiment: as above

In the case of B1, the “fold increase in GAPDH/Siah1 association (high glucose against osmotic control)” value [1] is reported as 1.5 fold.

B2: binds [2].

Source: patent publication US20180296639A1 (Hoffmann-La Roche, published 2018)
